These results are taken from patent publication US20120244080A1 (GEORGIA STATE UNIVERSITY RESEARCH FOUNDATION, published 2012).

In experiment [1] the target is T1, GLP-1 receptor (GLP-1R) on rat insulinoma RINm5F cells (rat (RINm5F rat insulinoma cells), UniProt P32301 22-463).
T1 sequence (looked up): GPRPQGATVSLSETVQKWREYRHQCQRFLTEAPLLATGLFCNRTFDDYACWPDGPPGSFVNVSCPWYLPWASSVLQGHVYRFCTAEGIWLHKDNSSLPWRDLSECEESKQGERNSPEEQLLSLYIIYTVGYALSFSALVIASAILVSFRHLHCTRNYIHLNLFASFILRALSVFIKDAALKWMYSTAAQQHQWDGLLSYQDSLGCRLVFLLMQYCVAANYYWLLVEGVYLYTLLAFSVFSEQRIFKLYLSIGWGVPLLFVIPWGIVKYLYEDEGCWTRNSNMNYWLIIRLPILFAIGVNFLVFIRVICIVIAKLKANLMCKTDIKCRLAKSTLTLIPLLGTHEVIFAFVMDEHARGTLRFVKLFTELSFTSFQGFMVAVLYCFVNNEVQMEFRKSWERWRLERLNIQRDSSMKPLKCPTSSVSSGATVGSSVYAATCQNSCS
Description: cell-based or functional assay.

Experiment [2] has as its target T1, GLP-1 receptor (GLP-1R) on rat …. Description: immunofluorescence staining of RINm5F cells (GLP-1R expressing) after 30 min at 37 °C, detected with rabbit polyclonal anti-calbindin D9k. As for the experimental part:
The cells were extensively washed after 30 min treatments under 37° C. in microscopic chamber slides and subsequently fixed. […] The light shading represents antibody staining.
It is well known that GLP-1R is expressed in RINm5F but not in CHO cells. […] Similar binding analyses were carried out with RINm5F cells and a […] (αTC1).

B1: Fusion Protein Cal.GLP (human Calbindin D9k-GLP-1 fusion protein) (designed binder)
chain: MSTKKSPEELKRIFEKYAAKEGDPDQLSKDELKLLIQAEFPSLLKGPNTLDDLFQELDKNGHAEGTFTSDVSSYLEGQAAKEFIAWLVKGRG
Regarding B1, the “intracellular cAMP level in rat insulinoma RINm5F cells (Lance cAMP 384 kit), IC50” value in experiment [1] was approximately 20 nM.

B2: Human Calbindin D9k (other)
chain: STKKSPEELKRIFEKYAAKEGDPDQLSKDELKLLIQAEFPSLLKGPNTLDDLFQELDKNGDGEVSFEEFQVLVKKISQ
notes: Negative control and parental host protein
As to B2, the binding result in experiment [2] is listed as “no binding (tested: 50 µM)”.
